Here are results for 6 molecules from patent publication US20230031980A1 (SHANGHAI NINTH PEOPLE S HOSPITAL SHANGHAI JIAO TONG …, published 2023).

B1: SAGE1I3BD (INTS3-binding domain of SAGE1, residues 818-904) (other)
chain: AMAKKINDDIKYQLMKEVRRFGQNYERIFILLEEVQGSMKVKRQFVEFTIKEAARFKKVVLIQQLEKALKEIDSHCHLRKVKHMRKR
notes: Expressed in E. coli with a His-SUMO or GST tag; also called SAGE1818-904; small C-terminal region of SAGE1
B2: SAGE1ΔI3BD (deletion mutant of SAGE1 lacking the I3BD domain) (other)
chain: MQASPLQTSQPTPPEELHAAAYVFTNDGQQMRSDEVNLVATGHQSKKKHSRKSKRHSSSKRRKSMSSWLDKQEDAAVTHSICEERINNGQPVADNVLSTAPPWPDATIAHNIREERMENGQSRTDKVLSTAPPQLVHMAAAGIPSMSTRDLHSTVTHNIREERMENGQPQPDNVLSTGPTGLINMAATPIPAMSARDLYATVTHNVCEQKMENVQPAPDNVLLTLRPRRINMTDTGISPMSTRDPYATITYNVPEEKMEKGQPQPDNILSTASTGLINVAGAGTPAISTNGLYSTVPHNVCEEKMENDQPQPNNVLSTVQPVIIYLTATGIPGMNTRDQYATITHNVCEERVVNNQPLPSNALSTVLPGLAYLATADMPAMSTRDQHATIIHNLREEKKDNSQPTPDNVLSAVTPELINLAGAGIPPMSTRDQYATVNHHVHEARMENGQRKQDNVLSNVLSGLINMAGASIPAMSSRDLYATITHSVREEKMESGKPQTDKVISNDAPQLGHMAAGGIPSMSTKDLYATVTQNVHEERMENNQPQPSYDLSTVLPGLTYLTVAGIPAMSTRDQYATVTHNVHEEKIKNGQAASDNVFSTVPPAFINMAATGVSSMSTRDQYAAVTHNIREEKINNSQPAPGNILSTAPPWLRHMAAAGISSTITRDLYVTATHSVHEEKMTNGQQAPDNSLSTVPPGCINLSGAGISCRSTRDLYATVIHDIQEEEMENDQTPPDGFLSNSDSPELINMTGHCMPPNALDSFSHDFTSLSKDELLYKPDSNEFAVGTKNYSVSAGDPPVTVMSLVETVPNTPQISP
notes: also called SAGE1DI3BD
B3: INTS6I3BD (INTS3-binding domain of INTS6, residues 803-887) (other)
chain: RSHEEVNTELKAQIMKEIRKPGRKYERIFTLLKHVQGSLQTRLIFLQNVIKEASRFKKRMLIEQLENFLDEIHRRANQINHINSN
notes: It was cloned in pGEX-6P-1 and purified as the INTS3CTD-INTS6I3BD complex; also called INTS6803-887; small domain at the C-terminus of INTS6
B4: His-SAGE1-Flag (WT SAGE1) (other, not shown: small tags and cut ends)
chain: MQASPLQTSQPTPPEELHAAAYVFTNDGQQMRSDEVNLVATGHQSKKKHSRKSKRHSSSKRRKSMSSWLDKQEDAAVTHSICEERINNGQPVADNVLSTAPPWPDATIAHNIREERMENGQSRTDKVLSTAPPQLVHMAAAGIPSMSTRDLHSTVTHNIREERMENGQPQPDNVLSTGPTGLINMAATPIPAMSARDLYATVTHNVCEQKMENVQPAPDNVLLTLRPRRINMTDTGISPMSTRDPYATITYNVPEEKMEKGQPQPDNILSTASTGLINVAGAGTPAISTNGLYSTVPHNVCEEKMENDQPQPNNVLSTVQPVIIYLTATGIPGMNTRDQYATITHNVCEERVVNNQPLPSNALSTVLPGLAYLATADMPAMSTRDQHATIIHNLREEKKDNSQPTPDNVLSAVTPELINLAGAGIPPMSTRDQYATVNHHVHEARMENGQRKQDNVLSNVLSGLINMAGASIPAMSSRDLYATITHSVREEKMESGKPQTDKVISNDAPQLGHMAAGGIPSMSTKDLYATVTQNVHEERMENNQPQPSYDLSTVLPGLTYLTVAGIPAMSTRDQYATVTHNVHEEKIKNGQAASDNVFSTVPPAFINMAATGVSSMSTRDQYAAVTHNIREEKINNSQPAPGNILSTAPPWLRHMAAAGISSTITRDLYVTATHSVHEEKMTNGQQAPDNSLSTVPPGCINLSGAGISCRSTRDLYATVIHDIQEEEMENDQTPPDGFLSNSDSPELINMTGHCMPPNALDSFSHDFTSLSKDELLYKPDSNEFAVGTKNYSVSAGDPPVTVMSLVETVPNTPQISPAMAKKINDDIKYQLMKEVRRFGQNYERIFILLEEVQGSMKVKRQFVEFTIKEAARFKKVVLIQQLEKALKEIDSHCHLRKVKHMRKR
notes: also called wild type SAGE1
B5: SAGE1mut (R872A, F873A, K874A, M832A, F838A and Q840A) (other, not shown: small tags and cut ends)
chain: B4 chain with M832A, F838A, Q840A, R872A, F873A, K874A
notes: Derived from the WT SAGE1 plasmid by site-directed mutagenesis; also called mutant SAGE1; Mutant SAGE1
B6: INTS3CTD (C-terminal domain of INTS3, residues 572-978) (other)
chain: DQLDESLRDKVLQLQKGSDTEAQCEVMQEIVDQVLEEDFDSEQLSVLASCLQELFKAHFRGEVLPEEITEESLEESVGKPLYLIFRNLCQMQEDNSSFSLLLDLLSELYQKQPKIGYHLLYYLRASKAAAGKMNLYESFAQATQLGDLHTCLMMDMKACQEDDVRLLCHLTPSIYTEFPDETLRSGELLNMIVAVIDSAQLQELVCHVMMGNLVMFRKDSVLNILIQSLDWETFEQYCAWQLFLAHNIPLETIIPILQHLKYKEHPEALSCLLLQLRREKPSEEMVKMVLSRPCHPDDQFTTSILRHWCMKHDELLAEHIKSLLIKNNSLPRKRQSLRSSSSKLAQLTLEQILEHLDNLRLNLTNTKQNFFSQTPILQALQHVQASCDEAHKMKFSDLFSLAEEYED
notes: also called INTS3CTD dimer

Positions count from the first letter of the chain named. Names may count otherwise.

Series [1] addresses B6. Briefly: ITC (MicroCal iTC200, 16 °C, single-site model, two independent experiments). As for the experimental part: The equilibrium dissociation constant of the SAGE1I3BD-INTS3CTD interaction was determined using a MicroCal iTC200 calorimeter (Malvern). The binding enthalpy was measured at 16° C. in 25 mM Tris-HCl pH 8.0, 150 mM NaCl and 5 mM MgCl2. Two independent experiments were performed. ITC data were subsequently analyzed and fitted using Origin 7 software (OriginLab).
All statistical tests of experimental results were performed using the GraphPad Prism 7 unless noted. The statistical significance was calculated via unpaired two-tailed Student's t test. The dissociation constants (Kd) in ITC experiments were calculated using the Origin 7 software as mean±standard error from two independent experiments with a single site-specific binding model. The statistical analysis of in vivo experiments data was performed using nonparametric Mann-Whitney test. Results were represented as mean±standard deviation unless noted and p<0.05 was considered statistically significant.

For series [2], the target named is T1, His-INTS3-Strep (human, UniProt Q68E01 2-1043).
T1 construct: also called INTS3 (co-IP construct)
T1 sequence (Q68E01 2-1043): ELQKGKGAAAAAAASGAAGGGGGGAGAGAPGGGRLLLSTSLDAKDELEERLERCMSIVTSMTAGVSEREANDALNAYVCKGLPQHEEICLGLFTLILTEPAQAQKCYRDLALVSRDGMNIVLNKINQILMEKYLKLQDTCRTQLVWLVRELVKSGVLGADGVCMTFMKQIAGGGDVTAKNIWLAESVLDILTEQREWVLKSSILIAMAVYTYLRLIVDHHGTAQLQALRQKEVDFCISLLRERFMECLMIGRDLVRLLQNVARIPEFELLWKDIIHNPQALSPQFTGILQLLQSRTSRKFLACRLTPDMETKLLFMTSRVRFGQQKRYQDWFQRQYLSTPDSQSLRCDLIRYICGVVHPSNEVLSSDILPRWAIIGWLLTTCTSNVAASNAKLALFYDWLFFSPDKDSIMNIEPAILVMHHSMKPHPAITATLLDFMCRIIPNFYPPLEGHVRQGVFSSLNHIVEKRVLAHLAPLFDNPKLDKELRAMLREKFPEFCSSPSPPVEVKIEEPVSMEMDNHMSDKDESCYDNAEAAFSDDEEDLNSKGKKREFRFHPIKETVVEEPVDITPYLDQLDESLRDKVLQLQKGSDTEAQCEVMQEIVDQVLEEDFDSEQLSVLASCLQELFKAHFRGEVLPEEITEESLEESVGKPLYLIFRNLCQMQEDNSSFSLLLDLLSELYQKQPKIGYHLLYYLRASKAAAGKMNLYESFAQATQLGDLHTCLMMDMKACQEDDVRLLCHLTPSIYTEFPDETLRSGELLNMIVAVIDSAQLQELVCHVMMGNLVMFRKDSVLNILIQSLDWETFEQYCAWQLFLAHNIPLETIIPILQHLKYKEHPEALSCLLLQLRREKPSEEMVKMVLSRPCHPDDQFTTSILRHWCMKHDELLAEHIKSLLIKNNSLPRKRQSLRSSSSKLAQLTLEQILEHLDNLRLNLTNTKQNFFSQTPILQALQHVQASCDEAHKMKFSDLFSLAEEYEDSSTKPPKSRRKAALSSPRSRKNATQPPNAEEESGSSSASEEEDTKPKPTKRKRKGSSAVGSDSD
Briefly: co-IP. As for the experimental part: (§1) After 48 hours, cells were lysed in IP buffer containing 50 mM Tris-HCl pH 7.5, 150 mM NaCl, 0.1% Triton-X100, 1 mM EDTA and 1×Roche protease inhibitor. The supernatants were incubated overnight with mouse anti-His monoclonal antibody (Proteintech #66005-1-Ig), or rabbit anti-FLAG polyclonal antibody (Proteintech #20543-1-AP).
(§2) Then, protein A/G agarose beads (Millipore, #[…]02) were added and rotated for 2 more hours. The immunoprecipitated complexes were subjected to SDS-PAGE, followed by Western blot and/or MS analyses.

Series [3] addresses B6. As to the kind of experiment: purification of the complex, size-exclusion chromatography (FIG. 8B).
The target in series [4] is T1, His-INTS3-Strep. As to the kind of experiment: co-IP in transfected HEK-293T cells (FIG. 6C). Here is the method: as §1, §2
Series [5] concerns the molecule itself. Briefly: homodimerisation of two INTS3CTD protomers; crystal structure (2.3 Å) and calibrated size-exclusion chromatography. In general terms: SEC sorts molecules by how far they enter the pores of the column.

As to B1, the equilibrium dissociation constant (Kd) in series [1] is approximately 0.039 µM.

As to B2, the binding result in series [2] is “no binding”. In the case of B3, the binding result in series [3] is on record as “binds”.

In the case of B4, the binding result in series [4] is “binds”. For the molecule B5, in series [2], the binding result is given as “no binding”. Take B6: in series [5], the binding result is on record as “binds”.

The Kd is the concentration at which binding is half-saturated.
